Experiments:
[1] = test system: patients with relapsed or refractory multiple myeloma; assay: POLLUX (NCT02076009) phase 3 trial, safety (adverse events); type: in vivo, human
Source text: The purpose of this study was to assess the effects of administration of daratumumab when combined with lenalinomide and dexamethasone compared with lenalinomide and dexamethasone alone, for participants with relapsed or refractory multiple myeloma. The study was a multicenter, randomized open-label active-controlled phase 3 trial. A prespecified interim analysis has been described in Dimopoulos et al., NEJM375: 1319-31, 2016. The clinical trial number for this study is NCT02076009. […] For the DRd, the dose of dexamethasone was split: dexamethasone was administered at a dose of 20 mg before infusion as prophylaxis for infusion-related reactions and 20 mg was administered the next day.

[2] = test system: patients with relapsed or refractory multiple myeloma; assay: CASTOR (NCT02136134) phase 3 trial, safety (adverse events); type: in vivo, human
Source text: The purpose of this study is to assess the effects of administration of daratumumab when combined with VELCADE® (bortezomib) and dexamethasone compared with VELCADE® (bortezomib) and dexamethasone alone, for participants with relapsed or refractory multiple myeloma. The study was a multicenter, randomized open-label active-controlled phase 3 trial. A prespecified interim analysis has been described in Palumpo et al., NEJM375:754-66, 2016. The clinical trial number for this study is NCT02136134. Daratumumab was administered as an IV infusion at a dose of 16 mg/kg once per week (days 1, 8, and 15) for cycles 1-3, once every 3 weeks (on Day 1) during cycles 4-8, and once every 4 weeks thereafter. […] Dexamethasone was administered orally at 20 mg on Days 1, 2, 4, 5, 8, 9, 11, and 12, for a total dose of 160 mg per cycle. Safety assessments included the evaluation of adverse events, clinical laboratory testing, vital signs, and electrocardiography. The adverse events were graded according to the National Cancer Institute Common Terminology Criteria for Adverse Events, version 4.03.

## daratumumab
[1]; % of the reactions
  Infusion-related reactions occurring during the first infusion: 92%
[1]; DRd arm
  Incidence of daratumumab infusion-related reactions of any grade: 47.7%
[1]; in vivo
  Infusion-related event of grade 4 or 5: no patient
  Infusion-related reaction: cough: 8.5%
  Infusion-related reaction: dyspnea: 8.5%
  Infusion-related reaction: vomiting: 5.7%
  Patients who discontinued daratumumab because of a grade 3 infusion-related event: One
[2]; % of patients with infusion-related reactions
  Patients with infusion-related reactions whose events occurred during the first infusion: 98.2%
[2]; associated with daratumumab, DVd arm
  Infusion-related reactions of any grade: 45.3%
[2]; in vivo
  Grade 4 infusion-related events: no grade 4 events
  Infusion-related reaction: bronchospasm: 9.1%
  Infusion-related reaction: cough: 7.0%
  Infusion-related reaction: dyspnea: 10.7%
  Patients who discontinued treatment because of infusion-related reactions: Two

Reference: patent US20230340145A1, “Methods of Treating High Risk Multiple Myeloma” (Janssen Biotech, Inc., priority 2017, published 2023)
